This test concerns the target monoclonal anti-H2a antibody of hybridoma clone B9 (ECACC provisional accession number 04030801). Nature of the test: competitive ELISA, B9 ascitic fluid preincubated overnight with free specific peptide, then added to the peptide-coated plate. (An ELISA detects its analyte on a solid surface through an enzyme-linked reagent.)

As to CEKRRNATGEVA [H2 carboxyterminal peptide (SEQ ID NO. 1, …)], the % inhibition of the reaction is 81%.

Source of the values: EP1601683B1.
